Results on two molecules are retold here after patent publication US20180327500A1 (SYMPHOGEN A S, published 2018).

Substitutions are numbered along the chain they refer to.

For experiment [1], the target named is T1, His tagged cynomolgus MET ECD (Sinobiological) (cynomolgus).
T1 construct: extracellular domain; Bought monovalent antigen
In words: SPR (Bio-Rad XPR-36); antibody captured on anti-human IgG Fc surface, MET ECD 25 to 1.56 nM, 1:1 Langmuir fit.
Experimental: His tagged human or cynomolgus MET ECD antigens were purchased from Sinobiological, China. […] Measurements were conducted with a plate rotation speed of 1000 rpm and sensors were regenerated and reused by brief 5 second alternations between exposure to 10 mM Glycine:HCl buffer (pH 1.5) or PBS buffer containing 1% BSA and 0.001% Tween 20 three times. For the Surface Plasmon Resonance experiments conducted on the Bio-Rad XPR-36 instrument, anti-MET antibodies were adjusted to a concentration of 0.25-0.5 μg/ml and captured on anti-human IgG Fc surfaces generated by immobilizing a monoclonal anti-human Fc antibody (Biacore, Denmark). […] The recorded binding responses were fitted to a simple Langmuir 1:1 binding model for calculation of the on-rate (kon or ka), off-rate (koff or kd) and affinity (KD) constants using double referencing.

Another experiment addresses T2, Mouse Blade 1-6.
T2 construct: human/mouse chimera on transfected HEK293 cells; also called AA 25-479
T2 MET ECD-SV5-GPI fusion: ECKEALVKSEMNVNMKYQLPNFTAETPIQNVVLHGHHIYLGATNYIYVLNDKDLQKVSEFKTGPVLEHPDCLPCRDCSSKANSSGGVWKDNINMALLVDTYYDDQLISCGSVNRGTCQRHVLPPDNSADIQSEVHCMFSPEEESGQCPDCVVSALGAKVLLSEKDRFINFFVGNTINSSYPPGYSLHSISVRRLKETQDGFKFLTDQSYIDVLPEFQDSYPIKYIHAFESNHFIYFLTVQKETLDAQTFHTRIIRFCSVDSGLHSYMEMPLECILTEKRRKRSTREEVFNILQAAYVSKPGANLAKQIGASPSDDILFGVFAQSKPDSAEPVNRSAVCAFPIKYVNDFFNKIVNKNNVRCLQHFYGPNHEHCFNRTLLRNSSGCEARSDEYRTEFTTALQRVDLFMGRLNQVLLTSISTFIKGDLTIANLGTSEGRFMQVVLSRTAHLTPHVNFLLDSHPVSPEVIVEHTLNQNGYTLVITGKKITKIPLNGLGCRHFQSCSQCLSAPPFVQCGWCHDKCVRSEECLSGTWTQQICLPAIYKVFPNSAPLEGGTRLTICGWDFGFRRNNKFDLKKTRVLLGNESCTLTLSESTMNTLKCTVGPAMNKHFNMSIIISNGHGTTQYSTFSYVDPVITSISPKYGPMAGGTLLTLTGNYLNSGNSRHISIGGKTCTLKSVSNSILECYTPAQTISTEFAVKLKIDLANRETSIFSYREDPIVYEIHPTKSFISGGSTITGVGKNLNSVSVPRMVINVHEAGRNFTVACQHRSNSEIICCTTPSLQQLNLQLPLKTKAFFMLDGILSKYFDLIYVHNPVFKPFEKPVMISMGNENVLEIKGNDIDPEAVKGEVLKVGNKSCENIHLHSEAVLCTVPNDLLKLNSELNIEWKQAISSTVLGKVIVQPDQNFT
In words: flow cytometry on transfected HEK293 cells.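 Also: antibodies applied at 50 µg/ml, binding called specific when fluorescence exceeds the mean signal on a negative control chicken or mouse MET construct plus four SD.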

Another experiment addresses T3, Mouse Blade 1-4.
T3 construct: human/mouse chimera on transfected HEK293 cells; also called AA 25-295
T3 MET ECD-SV5-GPI fusion: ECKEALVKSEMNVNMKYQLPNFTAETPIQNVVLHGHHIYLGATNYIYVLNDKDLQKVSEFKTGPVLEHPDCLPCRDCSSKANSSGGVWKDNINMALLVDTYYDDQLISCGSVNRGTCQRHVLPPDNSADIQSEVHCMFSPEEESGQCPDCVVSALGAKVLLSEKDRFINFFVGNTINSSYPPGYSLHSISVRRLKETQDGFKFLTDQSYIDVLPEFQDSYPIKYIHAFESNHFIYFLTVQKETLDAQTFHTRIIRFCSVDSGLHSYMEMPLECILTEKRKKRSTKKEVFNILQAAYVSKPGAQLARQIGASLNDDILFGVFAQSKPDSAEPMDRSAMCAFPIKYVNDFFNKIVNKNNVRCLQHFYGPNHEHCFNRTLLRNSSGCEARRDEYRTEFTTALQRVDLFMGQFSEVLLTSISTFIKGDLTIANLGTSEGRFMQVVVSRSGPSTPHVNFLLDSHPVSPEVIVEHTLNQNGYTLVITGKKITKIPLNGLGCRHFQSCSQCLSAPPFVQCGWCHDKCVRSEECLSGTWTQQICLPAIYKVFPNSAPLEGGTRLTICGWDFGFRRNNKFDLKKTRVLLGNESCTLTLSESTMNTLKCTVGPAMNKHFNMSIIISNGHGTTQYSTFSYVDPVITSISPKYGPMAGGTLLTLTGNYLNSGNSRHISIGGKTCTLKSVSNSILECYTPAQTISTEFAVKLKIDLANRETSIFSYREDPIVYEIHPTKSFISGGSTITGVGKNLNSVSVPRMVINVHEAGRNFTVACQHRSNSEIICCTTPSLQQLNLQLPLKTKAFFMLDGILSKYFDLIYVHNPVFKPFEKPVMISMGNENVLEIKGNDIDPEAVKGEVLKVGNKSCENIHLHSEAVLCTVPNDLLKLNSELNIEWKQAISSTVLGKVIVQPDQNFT
In words: flow cytometry on transfected HEK293 cells.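 Also: antibodies applied at 50 µg/ml, binding called specific when fluorescence exceeds the mean signal on a negative control chicken or mouse MET construct plus four SD.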

In the next experiment the target is T4, LS3.
T4 construct: human/mouse chimera on transfected HEK293 cells; also called AA 25-312
T4 MET ECD-SV5-GPI fusion: T3 MET ECD-SV5-GPI fusion with K280R, K285R, K286E
In words: flow cytometry on transfected HEK293 cells.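 Also: antibodies applied at 50 µg/ml, binding called specific when fluorescence exceeds the mean signal on a negative control chicken or mouse MET construct plus four SD.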

Experimental for LS3: (§1) Cut-off values defined as the average fluorescence signal of all antibodies tested at 50 μg/ml to the negative control chicken or mouse MET construct+four standard deviations were employed to discriminate background binding from specific binding for the domain exchange or blade exchange constructs.
Experimental for Mouse Blade 1-4: as §1
Experimental for Mouse Blade 1-6: as §1

B1: humanized antibody 9006 (antibody, human IgG1, kappa, V domains shown)
VH: QVQLVQSGSELKKPGASVKVSCKASGYTFTNFRMNWVKQAPGQGLKWMGWINTYTGEPTYVDDLKGRFVFSLDTSVSTAYLQISSLKAEDTAVYYCARKGIARAMDYWGQGTTVTVSS
VL: DIVMTQSPDSLAVSLGERATINCKSSQSLLDSGNQKNYLAWYQQKPGQPPKLLIFGASTRESGVPDRFSGSGSGTDFTLTISSLQAEDVAVYYCQNDHSYPYTFGQGTKLEIKR
notes: also called Hu9006; hu9006
B1 gave a Kd in experiment [1] of 0.086 nM. The molecule also had a koff in experiment [1] of 1.6e-05 s⁻¹. This molecule also displayed a kon in experiment [1] of 180000 M⁻¹ s⁻¹. The binding result in the experiment with Mouse Blade 1-6, with Mouse Blade 1-4 and in the experiment with LS3 was “no binding (tested: 50 µg/ml)” in each case.

B2: humanized antibody 9338 (antibody, human IgG1, kappa, V domains shown)
VH: QVQLVQSGAEVKKPGSSVKVSCKASGYTFTSYWMHWVRQAPGQGLEWMGYINPSSGHIENNQKFKDRVTITADKSTSTAYMELSSLRSEDTAVYYCARGRFAYWGQGTLVTVSS
VL: EIVLTQSPATLSLSPGERATLSCSASSSVSSGYLYWYQQKPGQAPRLLIYSTSNLASGIPARFSGSGSGTDFTLTISSLEPEDFAVYYCHQWSSYPFTFGSGTKLEIKR
notes: also called Hu9338; hu9338
In experiment [1], B2 showed a Kd of 0.074 nM, a koff of 5.4e-05 s⁻¹ and a kon of 740000 M⁻¹ s⁻¹. In addition, the binding result in the experiment with Mouse Blade 1-6 is listed as “no binding (tested: 50 µg/ml)”. Also, the binding result with Mouse Blade 1-4 is recorded as “no binding (tested: 50 µg/ml)”. Besides, in the experiment with LS3, the binding result is listed as “no binding (tested: 50 µg/ml)”.
